# According to patent publication US20220153874A1 (NEURIMMUNE, published 2022):
# Ends that are not written are not given here.
# T1: (GA)8 repeats
# T1 construct: also called poly-(GA)8; GA (e.g., poly(GA))
# T1 peptide: GAGAGAGAGAGAGAGA
# T2: synthesized dipeptide repeat protein (GA)15: H-CHHHHHH(GA)15-OH
# T2 construct: also called poly-GA DPR peptide; uncoupled (GA)15 peptide
# T2 peptide: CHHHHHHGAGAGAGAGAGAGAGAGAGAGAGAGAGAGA
# T3: synthesized dipeptide repeat protein (GA)20: H-(GA)20HHHHHH-NH2 (C-terminal amide (-NH2))
# T3 peptide: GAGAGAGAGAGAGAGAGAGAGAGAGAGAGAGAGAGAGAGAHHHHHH
# T4: synthesized dipeptide repeat protein (GA)10: H-(GA)10HHHHHH-NH2 (C-terminal amide (-NH2))
# T4 peptide: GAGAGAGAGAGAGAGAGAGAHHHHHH
# T5: synthesized dipeptide repeat protein (GA)6: H-(GA)6HHHHHH-NH2
# T5 peptide: H-GAGAGAGAGAGAHHHHHH-NH2
# T6: synthetic biotin-8xGA (also: biotin, position not given here)
# T6 construct: also called synthetic 8×GA; poly-(GA)8 peptide
# T6 peptide: GAGAGAGAGAGAGAGA
# Experiments:
# [1] = target: T1, (GA)8 repeats; experiment: SPR, inset: Fab bound (RU) plotted against [Fab] from 0 to 20000 nM with a fitted saturation curve
# [2] = target: T7, BSA-coupled (GA)15 dipeptide repeat protein peptide (H-CHHHHHH(GA)15-OH conjugated via SMCC to bovine serum … (bovine, UniProt P02769 25-607, conjugated via a bifunctional linker (SMCC) to bovine serum albumin (BSA))); experiment: indirect ELISA, coated BSA-coupled peptide
# T7 construct: also called BSA-coupled peptide; BSA-conjugated poly-GA
# Description: (§1) In brief, poly-GA dipeptide repeat proteins were synthesized and purified by Schafer-N(Copenhagen, Denmark): (GA)₁₅: H-CHHHHHH(GA)₁₅-OH (SEQ ID NO: 61). Poly-GA DPR protein peptides were then conjugated via a bifunctional linker (SMCC) to bovine serum albumin (BSA). 96-well microplates (Corning Incorporated, Corning, USA) were coated with poly-GA BSA-coupled or uncoupled dipeptide repeat protein peptides at a concentration of 5 μg/ml in coating buffer (15 mM Na₂CO₃, 35 mM NaHCO₃, pH 9.42). Non-specific binding sites were blocked for 1 h at RT with PBS/0.1% Tween®-20 containing 2% BSA (Sigma-Aldrich, Buchs, Switzerland). […] Binding was determined by measurement of HRP activity in a standard colorimetric assay.
# (§2) EC₅₀ values were estimated by non-linear regression using GraphPad Prism software (San Diego, USA).
# [3] = target: T2, synthesized dipeptide repeat protein …; experiment: indirect ELISA, coated uncoupled peptide
# Description: as §1, §2
# [4] = target: T2, synthesized dipeptide repeat protein …; experiment: indirect ELISA, coated peptide
# Description: In brief, dipeptide repeat proteins were synthesized and purified by Schafer-N(Copenhagen, Denmark): (GA)₁₅: H-CHHHHHH(GA)₁₅-OH (SEQ ID NO: 61); (GP)₁₅: H-C(GP)₁₅-OH (SEQ ID NO: 62); (GR)₁₅: H-C(GR)₁₅-OH (SEQ ID NO: 63); (PA)₁₅: H-C(PA)₁₅-OH (SEQ ID NO: 64); (PR)₁₅: H—C(PR)₁₅-OH (SEQ ID NO: 65). 96-well microplates (Corning Incorporated, Corning, USA) were coated with dipeptide repeat protein peptides at a concentration of either 5 μg/ml or 20 μg/ml in coating buffer (15 mM Na₂CO₃, 35 mM NaHCO₃, pH 9.42). Non-specific binding sites were blocked for 1 h at RT with PBS/0.1% Tween®-20 containing 2% BSA (Sigma-Aldrich, Buchs, Switzerland). […] Binding was determined by measurement of HRP activity in a standard colorimetric assay.
# as §2
# [5] = target: T3, synthesized dipeptide repeat protein …; experiment: indirect ELISA, peptide coated at 50 µg/ml
# From the text: (§3) In brief, Dipeptide repeat protein peptides were synthesized and purified by Schafer-N(Copenhagen, Denmark): GA₂₀: H-(GA)₂₀HHHHHH-NH₂ (SEQ ID NO: 71); GA₁₀: H-(GA)₁₀HHHHHH-NH₂ (SEQ ID NO: 72); GA₆: H-(GA)₆HHHHHH-NH₂ (SEQ ID NO: 73); GA₅: H-(GA)₅HHHHHH-NH₂ (SEQ ID NO: 74); GA₄: H-(GA)₄HHHHHH-NH₂ (SEQ ID NO: 75); GA₃: H-(GA)₃HHHHHH-NH₂ (SEQ ID NO: 76); GA₂: H-(GA)₂HHHHHH-NH₂ (SEQ ID NO: 77). 96-well microplates (Corning Incorporated, Corning, USA) were coated with dipeptide repeat protein peptides at a concentration of 50 μg/ml in coating buffer (15 mM Na₂CO₃, 35 mM NaHCO₃, pH 9.42). Non-specific binding sites were blocked for 1 h at RT with PBS/0.1% Tween®-20 containing 2% BSA (Sigma-Aldrich, Buchs, Switzerland). […] Binding was determined by measurement of HRP activity in a standard colorimetric assay. EC₅₀ values were estimated by non-linear regression using GraphPad Prism software (San Diego, USA).
# (§4) High affinity binding was detected for poly-GA DPRs harboring 10 (SEQ ID NO: 79) or 20 (GA)-repeats (SEQ ID NO: 82), reflected in an EC₅₀ in the subnanomolar range (Table 5, FIG. 6).
# [6] = target: T4, synthesized dipeptide repeat protein …; experiment: indirect ELISA, peptide coated at 50 µg/ml
# From the text: as §3, §4
# [7] = target: T5, synthesized dipeptide repeat protein …; experiment: indirect ELISA, peptide coated at 50 µg/ml
# From the text: as §3, §4
# [8] = target: T2, synthesized dipeptide repeat protein …; experiment: BLI (Octet RED96), peptide immobilised on AR2G sensor, IgG as analyte, 1:1 model
# Description: Poly-GA dipeptide repeat protein peptides were synthesized and purified by Schafer-N (Copenhagen, Denmark): (GA)₁₅: H-CHHHHHH(GA)₁₅-OH (SEQ ID NO: 61). Pure, lyophilized (GA)₁₅ (SEQ ID NO: 66) was dissolved in DMSO (Sigma-Aldrich, Buchs, Switzerland) at a concentration of 10 mg/ml and stored at −20° C. In brief, bio-layer interferometry experiments were performed on Octet RED96 instrument (Pall ForteBio LLC, Fremont, USA). Octet amine-reactive (AR2G) biosensors were used for covalent immobilization of (GA)₁₅ (SEQ ID NO: 66) dipeptide repeat protein peptides. AR2G biosensors were activated with EDC (1-Ethyl-3-[3-dimethylaminopropyl] carbodiimide hydrochloride; 20 mM in water; Pall ForteBio LLC, Fremont, USA) and s-NHS (N-hydroxysulfosuccinimide; 10 mM in water; Pall ForteBio LLC, Fremont, USA) for 300 s, followed by loading of the biosensor surface with 5 μg/ml of (GA)₁₅ (SEQ ID NO: 66) peptides in 10 mM acetate buffer pH 6 (Pall ForteBio LLC, Fremont, USA) for 600 s. […] Antibody dissociation was evaluated in kinetics buffer for 800 s. All binding data were referenced by collecting data with a PBS only reference. Data analysis was performed by using the Octet system software (Pall ForteBio LLC, Fremont, USA) with simultaneous Kₐ/Kd global fitting with 1:1 interaction model. BLI sensorgrams were drawn with the Prism software from GraphPad (San Diego, USA) upon fitting.
# [9] = target: T6, synthetic biotin-8xGA; experiment: SPR (Biacore T200), biotin-8xGA captured on Biotin CAPture chip, Fab as analyte, 1:1 model
# Description: Variant Fabs were assessed for binding to synthetic poly-GA by SPR, using a Biacore T200 instrument (GE Healthcare). Synthetic biotin-8xGA was captured on a Biotin CAPture chip (GE Healthcare) at […] from solutions at 5 ng/mL in SPR buffer (10 mM HEPES, pH 7.2, 150 mM NaCl, 3.4 mM EDTA, 0.05% BSA, 0.005% surfactant P20) using reagents and protocols provided by the manufacturer. A series of solutions of variant antibody Fab fragments at increasing concentrations of 1.23, 3.7, 11, 33, and 100 nM in SPR buffer were injected over the biotin-8xGA coated sensor chip for 4 min each at 30 μL/min followed by buffer wash, and the binding response relative to a reference sensor with no biotin-8xGA was recorded during injections and for 15 min after the final injection. Data were analyzed with Biacore T200 Evaluation Software v3.0 using a 1:1 binding model.
# T7 sequence (P02769 25-607 limits assumed): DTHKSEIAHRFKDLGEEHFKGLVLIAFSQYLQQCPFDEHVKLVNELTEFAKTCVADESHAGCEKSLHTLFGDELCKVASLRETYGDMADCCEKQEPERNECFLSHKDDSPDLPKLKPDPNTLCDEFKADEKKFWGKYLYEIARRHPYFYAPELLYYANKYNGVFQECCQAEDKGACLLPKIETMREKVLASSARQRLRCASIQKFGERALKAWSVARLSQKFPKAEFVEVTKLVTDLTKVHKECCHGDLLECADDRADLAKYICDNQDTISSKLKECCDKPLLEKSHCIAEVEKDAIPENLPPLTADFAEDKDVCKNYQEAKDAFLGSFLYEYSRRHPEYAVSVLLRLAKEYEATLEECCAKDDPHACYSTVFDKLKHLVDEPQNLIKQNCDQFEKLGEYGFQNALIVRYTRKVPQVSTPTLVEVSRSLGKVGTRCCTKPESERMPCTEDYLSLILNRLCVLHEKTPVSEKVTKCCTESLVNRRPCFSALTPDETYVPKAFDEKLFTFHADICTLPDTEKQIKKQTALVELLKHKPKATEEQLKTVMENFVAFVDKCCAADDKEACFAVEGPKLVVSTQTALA
Binder,Kd [9],koff [9],kon [9],also measured
"Fab fragment of DPR Ab-1 (Fab, V domains shown, also called DPR Ab-1 Fab) VH: QVQLVESGGGVVQPGRSLRLSCAASGFTFSNHAMHWVRQAPGKGLEWVAVISYDGENTYYADSIEGRFTISRDNFKNTLFLQMYSLTADDTAMYFCARGGRRGHFTSYYLDYWGQGTLVTVSS VL: DIQMTQSPSSLSASVGDRVTITCRASQNIDKYLNWYQQIPGKAPKLLIYAASSLHSGVPSRFSGSGSGTDFSLTISSLQPEDFAIYYCQQSYSSFRTFGQGTKLEIK",,,,Kd [1]: 4600 nM
"NI-308.5J10 recombinant human-derived monoclonal antibody (human IgG1, kappa) (antibody, V domains shown, Full hIgG1 heavy chain (plasmid SDD151) and kappa light chain (plasmid SDD152); also called 5J10 hIgG1) VH: SETLSLTYTVLGGSVSDYYWSCIRQPAGKGLEWIGRTYTNGKTTYTYNPSLESRLSLSIDTSMNQFSLKLTSVTAADTAVYYCARWGAVTGDYYYGMDVWGPGTLVTVSS VL: EIVLTQSPLSLSVTPGEPASISCRSPRSLLHTNGYTYLDWYLQRPGQSPQLLIFLASNRASGVPDRFSGSGSGTNFTLRISGVEADDVGVYYCMQGLQPSWTFGQGTKVEIKR",,,,EC50 [2]: 0.16 nM; EC50 [3]: 0.23 nM; EC50 [4]: 0.26 nM; EC50 [5]: 0.29 nM; EC50 [6]: 0.3 nM; EC50 [7]: 13.8 nM; Kd [8]: 0.15 nM; koff [8]: 2.4e-05 s⁻¹; kon [8]: 163000 M⁻¹ s⁻¹
"NI-308.5J10 variant WT-Fab-6His / N75D light chain (Fab, V domains shown, Plasmids SDD178 and SDD177; also called LC N75D Fab; 5J10-LC N75D Fab) VH: SETLSLTYTVLGGSVSDYYWSCIRQPAGKGLEWIGRTYTNGKTTYTYNPSLESRLSLSIDTSMNQFSLKLTSVTAADTAVYYCARWGAVTGDYYYGMDVWGPGTLVTVSS VL: EIVLTQSPLSLSVTPGEPASISCRSPRSLLHTNGYTYLDWYLQRPGQSPQLLIFLASNRASGVPDRFSGSGSGTDFTLRISGVEADDVGVYYCMQGLQPSWTFGQGTKVEIKR",26 nM,0.0059 s⁻¹,230000 M⁻¹ s⁻¹,
"NI-308.5J10 variant G55T-Fab-6His / N75D light chain (Fab, V domains shown, Plasmids SDD182 and SDD177; also called HC G55T/LC N75D Fab; 5J10-LC N75D, HC G55T Fab) VH: SETLSLTYTVLGGSVSDYYWSCIRQPAGKGLEWIGRTYTNTKTTYTYNPSLESRLSLSIDTSMNQFSLKLTSVTAADTAVYYCARWGAVTGDYYYGMDVWGPGTLVTVSS VL: EIVLTQSPLSLSVTPGEPASISCRSPRSLLHTNGYTYLDWYLQRPGQSPQLLIFLASNRASGVPDRFSGSGSGTDFTLRISGVEADDVGVYYCMQGLQPSWTFGQGTKVEIKR",22 nM,0.0044 s⁻¹,200000 M⁻¹ s⁻¹,
"NI-308.5J10 variant N54S-Fab-6His / N75D light chain (Fab, V domains shown, Plasmids SDD179 and SDD177; also called HC N54S/LC N75D Fab; 5J10-LC N75D, HC N54S Fab) VH: SETLSLTYTVLGGSVSDYYWSCIRQPAGKGLEWIGRTYTSGKTTYTYNPSLESRLSLSIDTSMNQFSLKLTSVTAADTAVYYCARWGAVTGDYYYGMDVWGPGTLVTVSS VL: EIVLTQSPLSLSVTPGEPASISCRSPRSLLHTNGYTYLDWYLQRPGQSPQLLIFLASNRASGVPDRFSGSGSGTDFTLRISGVEADDVGVYYCMQGLQPSWTFGQGTKVEIKR",21 nM,0.006 s⁻¹,290000 M⁻¹ s⁻¹,
"NI-308.5J10 variant G55S-Fab-6His / N75D light chain (Fab, V domains shown, Plasmids SDD181 and SDD177; also called HC G55S/LC N75D Fab; 5J10-LC N75D, HC G55S Fab) VH: SETLSLTYTVLGGSVSDYYWSCIRQPAGKGLEWIGRTYTNSKTTYTYNPSLESRLSLSIDTSMNQFSLKLTSVTAADTAVYYCARWGAVTGDYYYGMDVWGPGTLVTVSS VL: EIVLTQSPLSLSVTPGEPASISCRSPRSLLHTNGYTYLDWYLQRPGQSPQLLIFLASNRASGVPDRFSGSGSGTDFTLRISGVEADDVGVYYCMQGLQPSWTFGQGTKVEIKR",24 nM,0.0044 s⁻¹,180000 M⁻¹ s⁻¹,
"NI-308.5J10 variant N54T-Fab-6His / N75D light chain (Fab, V domains shown, Plasmids SDD180 and SDD177; also called HC N54T/LC N75D Fab; 5J10-LC N75D, HC N54T Fab) VH: SETLSLTYTVLGGSVSDYYWSCIRQPAGKGLEWIGRTYTTGKTTYTYNPSLESRLSLSIDTSMNQFSLKLTSVTAADTAVYYCARWGAVTGDYYYGMDVWGPGTLVTVSS VL: EIVLTQSPLSLSVTPGEPASISCRSPRSLLHTNGYTYLDWYLQRPGQSPQLLIFLASNRASGVPDRFSGSGSGTDFTLRISGVEADDVGVYYCMQGLQPSWTFGQGTKVEIKR",30 nM,0.0076 s⁻¹,260000 M⁻¹ s⁻¹,
"NI-308.5J10 WT Fab-6His (WT-Fab-6His / WT light chain) (Fab, V domains shown, The heavy chain is VH-CH1 with a C-terminal hexahistidine tag; also called 5J10 Fab) VH: SETLSLTYTVLGGSVSDYYWSCIRQPAGKGLEWIGRTYTNGKTTYTYNPSLESRLSLSIDTSMNQFSLKLTSVTAADTAVYYCARWGAVTGDYYYGMDVWGPGTLVTVSS VL: EIVLTQSPLSLSVTPGEPASISCRSPRSLLHTNGYTYLDWYLQRPGQSPQLLIFLASNRASGVPDRFSGSGSGTNFTLRISGVEADDVGVYYCMQGLQPSWTFGQGTKVEIKR",28 nM,0.0078 s⁻¹,270000 M⁻¹ s⁻¹,
